The results in this text go back to paper PMC10397247.

The target of assay [1] is T1, P8mS.
T1 chain: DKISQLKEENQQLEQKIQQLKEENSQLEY
Description: two-hybrid library CCNG1.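 Note: natural log of median RNA to DNA barcode read ratio; higher means stronger binding.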

The target in assay [2] is T2, P7mS.
T2 chain: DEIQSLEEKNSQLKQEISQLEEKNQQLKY
Description: two-hybrid library CCNG1.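 Note: natural log of median RNA to DNA barcode read ratio; higher means stronger binding.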

A further assay concerns the target T3, P9mS.
T3 chain: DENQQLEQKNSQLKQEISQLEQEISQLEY
Description: two-hybrid library CCNG1.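 Note: natural log of median RNA to DNA barcode read ratio; higher means stronger binding.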

The target in assay [3] is T4, P3mS.
T4 chain: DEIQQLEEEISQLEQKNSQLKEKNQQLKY
Kind of assay: two-hybrid library CCNG1.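 Note: natural log of median RNA to DNA barcode read ratio; higher means stronger binding.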

Assay [4] has as its target T5, P4mS.
T5 chain: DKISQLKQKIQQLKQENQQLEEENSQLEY
Description: two-hybrid library CCNG1.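 Note: natural log of median RNA to DNA barcode read ratio; higher means stronger binding.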

The target in assay [5] is T6, P6mS.
T6 chain: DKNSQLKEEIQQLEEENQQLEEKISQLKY
Kind of assay: two-hybrid library CCNG1.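 Note: natural log of median RNA to DNA barcode read ratio; higher means stronger binding.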

Another assay deals with T7, P11mS.
T7 chain: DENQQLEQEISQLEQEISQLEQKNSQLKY
Description: two-hybrid library CCNG1.

The next assay addresses T8, P12mS.
T8 chain: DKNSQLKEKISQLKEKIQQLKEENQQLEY
Description: two-hybrid library CCNG1.

Assay [6] concerns the target T9, P5mS.
T9 chain: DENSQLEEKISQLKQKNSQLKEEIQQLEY
Kind of assay: two-hybrid library CCNG1.

The target in another assay is T10, AP6-AA.
T10 chain: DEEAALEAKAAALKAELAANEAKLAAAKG
Kind of assay: two-hybrid library CCmax. Conditions: mean of both orientations.

The target in a further assay is T11, P4-AA.
T11 chain: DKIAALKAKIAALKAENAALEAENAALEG
Description: two-hybrid library CCmax. Particulars: mean of both orientations.

For the next assay, the target named is T12, zCON9_A.
T12 chain: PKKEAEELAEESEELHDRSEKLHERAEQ
Description: two-hybrid library CCmax.

The target in the next assay is T13, O13-AA.
T13 chain: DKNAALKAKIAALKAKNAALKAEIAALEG
Description: two-hybrid library CCmax. Conditions: mean of both orientations.

Another assay deals with T14, zCON9_D.
T14 chain: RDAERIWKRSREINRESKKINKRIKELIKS
Description: two-hybrid library CCmax.

In a further assay the target is T15, AP7-AA.
T15 chain: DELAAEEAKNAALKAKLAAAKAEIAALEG
Kind of assay: two-hybrid library CCmax. Particulars: mean of both orientations.

Another assay concerns the target T16, 4H_BCR.
T16 chain: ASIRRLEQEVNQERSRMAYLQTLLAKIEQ
Kind of assay: two-hybrid library CCmax. Conditions: mean of both orientations.

Another assay concerns the target T17, P1-AA.
T17 chain: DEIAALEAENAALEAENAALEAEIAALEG
Kind of assay: two-hybrid library CCmax. Particulars: mean of both orientations.

A further assay deals with T18, P3-AA.
T18 chain: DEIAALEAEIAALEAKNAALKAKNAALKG
Kind of assay: two-hybrid library CCmax.

Another assay deals with T19, AP2-AA.
T19 chain: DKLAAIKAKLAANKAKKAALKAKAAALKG
Description: two-hybrid library CCmax.

Another assay deals with T20, AP3-AA.
T20 chain: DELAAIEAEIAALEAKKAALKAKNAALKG
Description: two-hybrid library CCmax.

The target in a further assay is T21, AP1-AA.
T21 chain: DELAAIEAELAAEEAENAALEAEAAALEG
Kind of assay: two-hybrid library CCmax.

The target of a further assay is T22, 4H_APH3.
T22 chain: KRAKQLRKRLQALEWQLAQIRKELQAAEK
Description: two-hybrid library CCmax.

The target in the next assay is T23, AP8-AA.
T23 chain: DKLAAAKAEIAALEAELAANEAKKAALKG
Description: two-hybrid library CCmax. Particulars: mean of both orientations.

The target of another assay is T24, 4H_APH.
T24 chain: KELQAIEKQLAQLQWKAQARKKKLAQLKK
Kind of assay: two-hybrid library CCmax.

Another assay addresses T25, O14-AA.
T25 chain: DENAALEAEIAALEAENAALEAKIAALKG
Description: two-hybrid library CCmax. Conditions: mean of both orientations.

The next assay has as its target T26, O11-AA.
T26 chain: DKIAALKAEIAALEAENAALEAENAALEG
Kind of assay: two-hybrid library CCmax. Conditions: mean of both orientations.

The target in the next assay is T27, zCON9_B.
T27 chain: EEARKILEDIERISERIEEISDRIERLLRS
Kind of assay: two-hybrid library CCmax. Particulars: mean of both orientations.

The target of the next assay is T28, P12-AA.
T28 chain: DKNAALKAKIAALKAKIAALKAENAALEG
Kind of assay: two-hybrid library CCmax. Conditions: mean of both orientations.

A further assay addresses T29, P8-AA.
T29 chain: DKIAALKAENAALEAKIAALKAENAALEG
Kind of assay: two-hybrid library CCmax. Conditions: mean of both orientations.

For a further assay, the target named is GCN2_T. Description: two-hybrid library CCmax.
A further assay concerns the target T30, P10-AA.
T30 chain: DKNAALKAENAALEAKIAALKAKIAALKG
Kind of assay: two-hybrid library CCmax. Conditions: mean of both orientations.

Another assay addresses 4H_GCN4. Description: two-hybrid library CCmax.
The next assay has as its target T31, AP5-AA.
T31 chain: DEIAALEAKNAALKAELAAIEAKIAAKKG
Kind of assay: two-hybrid library CCmax. Conditions: mean of both orientations.

The target of a further assay is T32, P2-AA.
T32 chain: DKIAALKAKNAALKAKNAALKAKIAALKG
Kind of assay: two-hybrid library CCmax.

The target of a further assay is T33, AP4-AA.
T33 chain: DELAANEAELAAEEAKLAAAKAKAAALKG
Description: two-hybrid library CCmax. Particulars: mean of both orientations.

The next assay concerns the target T34, P11-AA.
T34 chain: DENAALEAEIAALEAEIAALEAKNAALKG
Description: two-hybrid library CCmax. Conditions: mean of both orientations.

The next assay addresses T35, P9-AA.
T35 chain: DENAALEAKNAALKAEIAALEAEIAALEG
Kind of assay: two-hybrid library CCmax.

For the next assay, the target named is T36, P7-AA.
T36 chain: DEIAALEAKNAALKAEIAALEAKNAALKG
Description: two-hybrid library CCmax.

The target of assay [7] is T37, P3mS.
T37 chain: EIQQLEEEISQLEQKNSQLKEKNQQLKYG
Description: two-hybrid library CC1. Particulars: mean of both orientations.

The next assay addresses T38, P3.
T38 chain: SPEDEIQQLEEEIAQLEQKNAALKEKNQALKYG
Description: two-hybrid library CC1. Particulars: mean of both orientations.

Assay [8] addresses T39, P6mS.
T39 chain: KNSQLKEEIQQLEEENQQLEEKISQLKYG
Description: two-hybrid library CC1. Conditions: mean of both orientations.

The target of a further assay is T40, P5SC2.
T40 chain: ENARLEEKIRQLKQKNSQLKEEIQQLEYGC
Description: two-hybrid library CC1. Conditions: mean of both orientations.

A further assay has as its target T41, P8.
T41 chain: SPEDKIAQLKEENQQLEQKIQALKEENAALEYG
Description: two-hybrid library CC1. Particulars: mean of both orientations.

The target of another assay is T42, P5SC1.
T42 chain: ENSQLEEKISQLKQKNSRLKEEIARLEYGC
Kind of assay: two-hybrid library CC1. Conditions: mean of both orientations.

The target of another assay is T43, P9.
T43 chain: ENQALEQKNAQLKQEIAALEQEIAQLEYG
Description: two-hybrid library CC1. Particulars: mean of both orientations.

Assay [9] addresses T44, P7mS.
T44 chain: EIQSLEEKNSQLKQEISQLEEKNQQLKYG
Description: two-hybrid library CC1. Conditions: mean of both orientations.

The target in the next assay is T45, P6SC2.
T45 chain: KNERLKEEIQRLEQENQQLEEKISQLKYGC
Kind of assay: two-hybrid library CC1. Conditions: mean of both orientations.

In another assay the target is T46, P6SC1.
T46 chain: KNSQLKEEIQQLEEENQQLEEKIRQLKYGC
Description: two-hybrid library CC1. Particulars: mean of both orientations.

The target in the next assay is T47, P5.
T47 chain: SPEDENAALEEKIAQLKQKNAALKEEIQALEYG
Description: two-hybrid library CC1. Particulars: mean of both orientations.

Assay [10] deals with T48, P5mS.
T48 chain: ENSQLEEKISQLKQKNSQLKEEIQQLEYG
Description: two-hybrid library CC1. Conditions: mean of both orientations.

Another assay addresses T49, P4.
T49 chain: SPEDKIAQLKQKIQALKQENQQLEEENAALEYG
Description: two-hybrid library CC1. Conditions: mean of both orientations.

The target of a further assay is T50, P7.
T50 chain: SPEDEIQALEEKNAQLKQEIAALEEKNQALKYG
Kind of assay: two-hybrid library CC1. Particulars: mean of both orientations.

The next assay has as its target T51, P12.
T51 chain: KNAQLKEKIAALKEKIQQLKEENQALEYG
Description: two-hybrid library CC1.

Assay [11] deals with T52, P4mS.
T52 chain: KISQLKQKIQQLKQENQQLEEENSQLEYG
Description: two-hybrid library CC1. Conditions: mean of both orientations.

The target of a further assay is T53, P6.
T53 chain: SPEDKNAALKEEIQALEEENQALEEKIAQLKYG
Kind of assay: two-hybrid library CC1. Particulars: mean of both orientations.

Assay [12] concerns the target T54, P8mS.
T54 chain: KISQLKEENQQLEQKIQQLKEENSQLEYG
Description: two-hybrid library CC1. Particulars: mean of both orientations.

The target of another assay is T55, 4H363-bA.
T55 chain: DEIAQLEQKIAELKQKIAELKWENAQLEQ
Description: two-hybrid library CCNG1.

The target in the next assay is T56, 4H2619-bA.
T56 chain: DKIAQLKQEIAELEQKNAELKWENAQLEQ
Description: two-hybrid library CCNG1.

Another assay concerns the target T57, 4H2568-bA.
T57 chain: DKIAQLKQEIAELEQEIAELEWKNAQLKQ
Description: two-hybrid library CCNG1.

For a further assay, the target named is T58, 4H3961-bA.
T58 chain: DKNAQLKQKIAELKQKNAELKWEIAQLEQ
Kind of assay: two-hybrid library CCNG1.

For the next assay, the target named is T59, 4H3907-bA.
T59 chain: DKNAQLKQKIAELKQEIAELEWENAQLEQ
Kind of assay: two-hybrid library CCNG1.

The target of the next assay is T60, 4H2745-bA.
T60 chain: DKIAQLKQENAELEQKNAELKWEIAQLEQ
Description: two-hybrid library CCNG1.

The target in another assay is T61, 4H344-bA.
T61 chain: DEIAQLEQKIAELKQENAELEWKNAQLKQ
Kind of assay: two-hybrid library CCNG1.

The target in a further assay is T62, 4H470-bA.
T62 chain: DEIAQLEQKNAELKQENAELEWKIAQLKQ
Kind of assay: two-hybrid library CCNG1.

Sequence of 4H_GCN4 (chain, as listed by the source): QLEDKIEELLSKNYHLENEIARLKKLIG

B1: P11mS (peptide)
chain: DENQQLEQEISQLEQEISQLEQKNSQLKY
With B1, the interaction score was -0.0076 in the assay with P8mS [1]; -0.84 with P7mS [2]; -0.542 in the assay with P9mS; -0.646 with P3mS [3]; 0.774 with P4mS [4]; -0.739 with P6mS [5]. Further, the interaction score with P11mS was -0.707; with P12mS it was 1.52; in the assay with P5mS [6], 0.261.

B2: 4H_APH (peptide)
chain: KELQAIEKQLAQLQWKAQARKKKLAQLKK
In the case of B2, the interaction score is -2.09 with AP6-AA; -1.9 with P4-AA; -1.26 with zCON9_A; -1.81 in the assay with O13-AA; -1.96 in the assay with zCON9_D; -2.03 in the assay with AP7-AA. Besides, the interaction score in the assay with 4H_BCR was -1.64; in the assay with P1-AA, -2.11; with P3-AA it was -0.728; with AP2-AA, -1.63; with AP3-AA it was -1.35; with AP1-AA it was -1.47. Besides, the interaction score was -1.54 with 4H_APH3; -1.48 with AP8-AA; -2.1 in the assay with 4H_APH; -1.65 in the assay with O14-AA; -1.39 with O11-AA; -2.09 with zCON9_B. For the same molecule, the interaction score was -1.3 with P12-AA; -1.89 with P8-AA; -2.07 in the assay with GCN2_T; -1.47 with P10-AA; -2.22 in the assay with 4H_GCN4; -2.21 with AP5-AA. Also, the interaction score with P2-AA is -1.82; with AP4-AA, -1.31; with P11-AA, -1.03; with P9-AA, -1.86; in the assay with P7-AA, -1.87.

B3: P12mS (peptide)
chain: DKNSQLKEKISQLKEKIQQLKEENQQLEY
Regarding B3, the interaction score is -0.844 with P8mS [1]; -0.947 with P7mS [2]; -0.472 in the assay with P9mS; 0.362 with P3mS [3]; -0.954 in the assay with P4mS [4]; -0.944 in the assay with P6mS [5]. Moreover, the interaction score with P12mS is -1.27; with P5mS [6], -1.57.

B4: P12 (peptide)
chain: KNAQLKEKIAALKEKIQQLKEENQALEYG
As for B4, the interaction score with P3mS [7] was -0.884; with P3 it was 0.183; in the assay with P6mS [8], -2.73; in the assay with P5SC2 it was -2.9; in the assay with P8 it was -2.9; with P5SC1 it was -2.96. Also, the interaction score with P9 was -1.37; with P7mS [9], -2.85; with P6SC2 it was -2.47; in the assay with P6SC1, -2.44; in the assay with P5, -2.87; with P5mS [10], -2.78. Moreover, the interaction score in the assay with P4 was -2.97; in the assay with P7, -2.41; in the assay with P12, -2.73; in the assay with P4mS [11] it was -2.91; in the assay with P6, -2.42; with P8mS [12] it was -2.85.

B5: 4H2568-bA (peptide)
chain: DKIAQLKQEIAELEQEIAELEWKNAQLKQ
As to B5, the interaction score is 0.53 with 4H363-bA; 0.254 in the assay with 4H2619-bA; 1.94 in the assay with 4H2568-bA; 2.32 with 4H3961-bA; 1.89 with 4H3907-bA; -0.347 in the assay with 4H2745-bA. Further, the interaction score in the assay with 4H344-bA is 0.491; with 4H470-bA, -0.973.
